Assay results from US20230374147A1 (HUMMINGBIRD BIOSCIENCE PTE, published 2023).
Residue numbers refer to the chain shown, from its start.

B1: 1C8-6A3 hIgG1 (antibody, V domains shown)
VH: QVQLVQSGAEVKKPGASVKVSCKASGYTFTNYVMHWVKQKPGQGLEWMGYILPYNDGTKYAQKFQGKVTMTSDKSTSTVYMELSSLTSEDTAVYYCARYDYEGSFDYWGQGTLVTVSS
VL: DIQMTQSPSSLSASVGDRVTITCRASQDISNYLNWYQQKPGKAPKLLMCYTSRLHSGVPSRFSGSGSGTDFTLTISSLEQEDFATYYCQQGNTFPPTFGGGTKVEIKR
notes: also called [94]; hu1C8
B2: 1C8-402 hIgG1 (LALA) (antibody)
heavy: not shown
light: DIQMTQSPSSLSASVGDRVTITCRASQDISNYLSWYQQKPGKAPKLLMRYTSRLHSGVPSRFSGSGSGTDFTLTISSLEQEDFATYYCQQGNLFPPTFGGGTKVEIKRTVAAPSVFIFPPSDEQLKSGTASVVCLLNNFYPREAKVQWKVDNALQSGNSQESVTEQDSKDSTYSLSSTLTLSKADYEKHKVYACEVTHQGLSSPVTKSFNRGEC
notes: also called S1

What was measured:
[1] = molecular target: T1, Human HER3-His (Sino Biological, 10201-H08H) (human, UniProt P21860 20-643); assay: ELISA, coated His-tagged antigen
T1 construct: Specificity control; also called Human HERS-His

[2] = molecular target: T2, recombinant his-tagged human TACI (Sinobiological cat #11937-H08H) (human, UniProt O14836 1-165); assay: ELISA, coated Human TACI-His
T2 construct: Bought protein; also called Human TACI-His; huTACI; not shown: His tag
T2 sequence: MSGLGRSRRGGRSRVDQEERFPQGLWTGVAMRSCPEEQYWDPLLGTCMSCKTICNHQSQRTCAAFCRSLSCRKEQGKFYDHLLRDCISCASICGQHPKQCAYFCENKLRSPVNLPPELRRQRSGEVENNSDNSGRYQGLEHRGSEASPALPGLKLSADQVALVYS

[3] = molecular target: T3, human BCMA expressed on cells (human, UniProt Q02223 1-184); assay: flow cytometry, fixed RPMI 8226 cells (BCMA+, TACI+: the cells carry both targets)
T3 construct: the cell line is named under assay; also called wildtype human BCMA
T3 sequence: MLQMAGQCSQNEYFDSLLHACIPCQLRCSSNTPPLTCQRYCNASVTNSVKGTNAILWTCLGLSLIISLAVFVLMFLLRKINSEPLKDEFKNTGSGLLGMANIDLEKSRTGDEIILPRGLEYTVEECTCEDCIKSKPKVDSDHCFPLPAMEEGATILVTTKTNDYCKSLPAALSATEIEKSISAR

[4] = molecular target: T4, Cyno TACI-His (Sino Biological, 90976-C08H) (cynomolgus macaque, UniProt G7PTR7 1-165); assay: ELISA, coated Cyno TACI-His
T4 construct: Bought protein; also called cynomolgous macaque TACI; CyTACI
T4 sequence: T2 sequence with F21S, T52A, A64T, S70N, K77R, L139S, V160L

[5] = molecular target: T5, Human BCMA-His (Sino Biological, 10620-H08H) (human, UniProt Q02223 1-54); assay: ELISA, coated Human BCMA-His
T5 construct: not shown: His tag
T5 sequence: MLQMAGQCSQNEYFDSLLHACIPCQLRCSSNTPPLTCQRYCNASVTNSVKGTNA

[6] = molecular target: T6, His-tagged cynomolgous macaque BCMA (Acro Biosystems, BCA-C52H7) (cynomolgus macaque, UniProt Q02223 1-54 (human entry)); assay: ELISA, coated Cyno BCMA-His
T6 construct: Bought protein; also called cyno BCMA; CyBCMA; not shown: His tag

[7] = molecular target: T3, human BCMA expressed on cells; assay: flow cytometry, H929 cells (BCMA+)
[8] = molecular target: T7, His-tagged human BCMA (Acro Biosystems, Cat. #BCA-H522y) (human, UniProt Q02223 1-54); assay: HDX-MS of the 1:1 complex against free BCMA
T7 construct: also called huBCMA; P1; not shown: His tag
T7 sequence: T5 sequence

Binder	binding result [1]	EC50 [2] [nM]	EC50 [3] [nM]	EC50 [4] [nM]	EC50 [5] [nM]	binding result [6]	EC50 [7] [nM]	binding result [8]
B1	no binding (tested: 3 µg/ml (highest concentration))	1.32	0.238	0.028	0.005	binds	0.111	
B2								binds
